The values that follow come from US20240408249A1 (NATIONAL RESEARCH COUNCIL OF CANADA, published 2024).

In experiment [1] the target is T1, EGFRvIII (epidermal growth factor receptor variant III) over-expressed on the U87-EGFRvIII glioblastoma cell … (human, UniProt P00533 298-623).
T1 construct: The assay used cells over-expressing EGFRvIII (whole receptor on cells); EGFRvIII is its in-frame deletion of exons 2-7; also called de2-7EGFR; ΔEGFR
In words: radioligand saturation binding on U87-EGFRvIII cells, 2 h on ice, gamma counting, one-site non-linear fit. The protocol: (§1) 1. Cell lysate buffer was prepared using PBS with 1% Triton X-100 [0448] 2. Cell binding buffer was prepared using PBS with 0.5% BSA
(§2) This study followed the procedures described below: [0450] 1. Cell preparation: [0451] a. Harvest attached cells: recover sufficient, U87-EGFRvIII cells from T225 flasks using trypsin/EDTA and transfer to a 50 ml culture tube. Dispense a 50 μl sample of resuspended cells into an Eppendorf micro-tube and dilute with 50 μl of trypan blue. Fill a hemocytometer (10 μl) chamber and count the number of cells present. [0452] i. Count cells in four quadrants of the counting area. [0453] ii. Calculate cells/mL: count/4 quadrants×dilution factor×10⁴=cells/mL. [0454] b. Resuspend cells in medium to a final concentration of 3×10⁵ cells/ml. [0455] c. Plate 3×10⁵/1 mL U87-EGFRvIII into designated well of the 24-well plates and gently tap to evenly distribute cells (total 6 plates prepared-4 U87-EGFRvIII, 2 blanks) [0456] d. Incubate plates overnight at 37° C. and 5% CO₂. [0457] 2. Binding assay: [0458] Blocking agent was prepared as follows: 4500 μl as concentration of 4 μM; Final concentration of blocker 2 μM. [0459] For Conjugate A [0460] stock=7.58 mg/mL [0461] mg/ml=52.64 μM, add 342 μl [0462] Binding buffer: 4158 μl [0463] For Conjugate B [0464] stock=6.7 mg/mL [0465] mg/ml=46.53 μM, add 387 μl [0466] Binding buffer: 4113 μl [0467] a. Remove medium from two plates [0468] b. […]

Experiment [2] addresses T1, EGFRvIII (epidermal growth factor …). Kind of experiment: saturation binding of the 177Lu-labelled conjugate on U87-EGFRvIII cells, 2 h on ice, gamma counting; specific binding curve. The method, then: as §1, §2

In general, Kd refers to the concentration at which binding is half-saturated. Usually EC50 (read off the curve) stands for the concentration at which the effect is half-maximal. Read a high EC50 (read off the curve) as lower potency in that assay.

B1: Conjugate A ([177Lu]-Compound C-anti-EGFRvIII conjugate prepared from EGFRvIII antibody hH2-hL3) (antibody, V domains shown)
VH: QVQLQESGPGLVKPSQTLSLTCTVSGYSITSDYAWNWIRQPPGKGLEWIGYIGYNGRTSYNPSLKSRVTISRDTSKNQFSLKLSSVTAADTAVYYCARLGRGFAYWGQGTLVTVSS
VL: DIQMTQSPSSLSASVGDRVTITCHASQGINSNIGWLQQKPGKAFKGLIYHGTNLEDGVPSRFSGSGSGTDYTLTISSLQPEDFATYYCVQYAQFPYTFGQGTKLEIKR
modifications: [177Lu]-Compound C (DOTA chelate with PEG3 linker) conjugated to the antibody; attachment residues not stated; typical chelate to antibody ratios (CARs) of 3-4
notes: Radioimmunoconjugate as tested; also called [177Lu]-DOTA-anti-EGFRvIII; humanized variant of anti-EGFRvIII antibody 4E11
The molecule B1 came in with a Kd in experiment [1] of 6.78 nM.

B2: Conjugate B ([177Lu]-Compound C-anti-EGFRvIII conjugate prepared from EGFRvIII antibody hH3-hL1) (antibody, V domains shown)
VH: QVQLQESGPGLVKPSQTLSLTCTVSGYSITSDYAWNWIRQPPGKGLEWMGYIGYNGRTSYNPSLKSRITISRDTSKNQFSLKLSSVTAADTAVYYCARLGRGFAYWGQGTLVTVSS
VL: DIQMTQSPSSLSASVGDRVTITCHASQGINSNIGWYQQKPGKAPKLLIYHGTNLEDGVPSRFSGSGSGTDYTLTISSLQPEDFATYYCVQYAQFPYTFGQGTKLEIKR
modifications: [177Lu]-Compound C (DOTA chelate with PEG3 linker) conjugated to the antibody; attachment residues not stated; typical chelate to antibody ratios (CARs) of 3-4
notes: as for B1
On to B2, for which the concentration giving a half-maximal response (EC50 (read off the curve)) in experiment [2] is approximately 3 nM. This molecule also had a Kd in experiment [1] of 2.75 nM.
